Assay [1] concerns the target Env of HIV-BaL.LucR.T2A.ecto/hPBMC (HIV-1).
The target of assay [2] is HIV-1 C.DU123 Env (HIV-1).
Assay [3] has as its target HIV-1 B.ADA Env on Aldrithiol-2 inactivated virions (HIV-1).
The target in assay [4] is HIV-1 B.MN Env on Aldrithiol-2 inactivated virions (HIV-1).
For assay [5], the target named is HIV-1 B.AD8 Env on Aldrithiol-2 inactivated virions (HIV-1).

Take IgG1b12 (antibody): in assay [1], the mean IC80, inhibition of HIV-1 infection of PBMC from 75 donors turned out to be 9.2 µg/mL.

In the case of 4E10 (antibody), the IC50, neutralization of HIV-1 Env pseudovirus in TZM-bl cells in the assay with HIV-1 B.PVO Env (HIV-1) was 2.2 µg/mL; in the assay with HIV-1 B.6535 Env (HIV-1), less than 2 µg/mL; in assay [2], less than 2 µg/mL. The results for the IC90, inhibition of fusion (syncytia) induced by Aldrithiol-2 inactivated HIV-1 in SUP-T1 cells in assay [3], in assay [4] and in assay [5] were less than 1.2 µg/mL, less than 1.2 µg/mL and 10 µg/mL, respectively. Besides, the mean IC80, inhibition of HIV-1 infection of PBMC from 75 donors in assay [1] turned out to be 20.4 µg/mL.

For the molecule 2F5 (antibody), the values for the IC90, inhibition of fusion (syncytia) induced by Aldrithiol-2 inactivated HIV-1 in SUP-T1 cells in assay [3], in assay [4] and in assay [5] were less than 1.2 µg/mL, less than 1.2 µg/mL and 3.4 µg/mL, respectively.

For the molecule Bavituximab (antibody), the IC50, neutralization of HIV-1 Env pseudovirus in TZM-bl cells (with HIV-1 B.PVO Env (HIV-1); in the assay with HIV-1 B.6535 Env (HIV-1); in assay [2]) was more than 50 µg/mL throughout.

B1: mAb 11.31 (PGN 632) (antibody, V domains shown)
VH: QVQLQESGPGLVKPSGTLSLTCAVSGGSISSSNWWSWVRQPPGKGLEWIGEIYHSGSTNYNPSLKSRVTISVDKSKNQFSLKLSSVTAADTAVYYCARSRFRSWLVKRRYVYFDYWGQGTLVTVSS
VL: SSELSQDPAVSVALGQTVRITCQGDSLRSYYASWYQQKPGQAPVLVIYGKNNRPSGIPDRFSGSSSGNTASLTITGAQAEDEADYYCNSRDSSGNVVFGGGTKVTVL
Consider B1, for which the IC50, neutralization of HIV-1 Env pseudovirus in TZM-bl cells (in the assay with HIV-1 B.PVO Env (HIV-1); with HIV-1 B.6535 Env (HIV-1); in assay [2]) was more than 50 µg/mL each time.

(Values after patent US20110318360A1.)
